Measured values: PMC5762634, “Domain swapping and SMYD1 interactions with the PWWP domain of human hepatoma-derived growth factor” (Scientific Reports, 2018)

Target: the molecule itself
Assay: SEC; Superdex-200; apo PWWP domain at higher initial concentration (proportion of dimer rises with concentration); 20 mM Tris-HCl, 5 mM EDTA, 5 mM beta-ME, pH 7.5

B1: human HDGF PWWP domain (residues 1-100) (domain or fragment)
chain: not shown
notes: human hepatoma-derived growth factor (HDGF), N-terminal PWWP domain, the first 100 amino acids; Subcloned into the NdeI and EcoRI sites of pET28a; also called apo PWWP domain; HDGF PWWP_(1-100) domain; source: E. coli BL21-Codon Plus-RIL, purified (Ni2+-NTA, Hitrap Q, Superdex-200)
B1 was tested, and the “stoichiometry N” value was 2.
